The assay has as its target human Claudin 18.2 (human) (UniProt P56856). Description: flow cytometry, antibody dilution series on hCLDN18.2-expressing MiaPaCa-2 cells. (In general: In flow cytometry, cells or beads pass a laser one at a time.)

B1: YU577-E08 (antibody, V domains shown)
VH: QVQLVQSGAEVKKPGASVKVSCKASGYTFTSYYMHWVRQAPGQGLEWMGIINPSGGSTSYAQKFQGRVTMTRDTSTSTVYMELSSLRSEDTAVYYCATRQFDYWGQGTLVTVSS
VL: QSVLTQPPSVSAAPGQKVTISCSGSSSNIGNNYVSWYQQLPGTAPKLLIYENNKRPSGIPDRFSGSKSGTSATLGITGLQTGDEADYYCGTWDSSLSAAVFGGGTKVTVL
The molecule B1 returned an EC50 of 7.2 nM.

Usually EC50 stands for the midpoint of the concentration-response curve. Read a high EC50 as weaker potency.

The values above are taken from patent US20250002576A1.
